The results in this text go back to US20230135471A1, “UBIQUITIN VARIANTS WITH IMPROVED AFFINITY FOR 53BP1” (Integrated DNA Technologies, Inc., priority 2021, published 2023).

The target in this test is 53BP1 fragment (a.a. 1221-1718) fused to an adenylate cyclase fragment (two-hybrid) (UniProt Q12888). Kind of test: cell-based or functional assay.
“i53 + K48M two-hybrid fusion (designed binder)” registered an Experiment 1 Average Enrichment of 0.91 log2, an Experiment 1 Rep 1 Enrichment of 0.87 log2, an Experiment 1 Rep 2 Enrichment of 0.94 log2 and an Experiment 2 Average Enrichment of 0.67 log2. This substance also had an Experiment 2 Rep 1 Enrichment of 0.63 log2 and an Experiment 2 Rep 2 Enrichment of 0.7 log2.

As for “i53 + P38H two-hybrid fusion (designed binder)”, the Experiment 1 Average Enrichment worked out at 0.26 log2, the Experiment 1 Rep 1 Enrichment stood at 0.87 log2, the Experiment 1 Rep 2 Enrichment was -0.35 log2 and the Experiment 2 Average Enrichment was 0.58 log2. For the same substance, the Experiment 2 Rep 1 Enrichment turned out to be 0.33 log2 and the Experiment 2 Rep 2 Enrichment was 0.83 log2.

The substance “i53 + R42N two-hybrid fusion (designed binder)” gave an Experiment 1 Average Enrichment of 1.12 log2, an Experiment 1 Rep 1 Enrichment of 1.18 log2, an Experiment 1 Rep 2 Enrichment of 1.05 log2 and an Experiment 2 Average Enrichment of 1.01 log2. This substance also gave an Experiment 2 Rep 1 Enrichment of 1.34 log2 and an Experiment 2 Rep 2 Enrichment of 0.68 log2.

“i53 + S49I two-hybrid fusion (designed binder)” returned an Experiment 1 Average Enrichment of 0.3 log2, an Experiment 1 Rep 1 Enrichment of 0.04 log2, an Experiment 1 Rep 2 Enrichment of 0.56 log2 and an Experiment 2 Average Enrichment of 0.17 log2. Further, the Experiment 2 Rep 1 Enrichment is 0.6 log2 and the Experiment 2 Rep 2 Enrichment is -0.26 log2.

“i53 + S65R two-hybrid fusion (designed binder)”: the Experiment 1 Average Enrichment came out at 1.14 log2, the Experiment 1 Rep 1 Enrichment was 1.15 log2, the Experiment 1 Rep 2 Enrichment was found to be 1.13 log2 and the Experiment 2 Average Enrichment was 1.1 log2. The Experiment 2 Rep 1 Enrichment turned out to be 1.48 log2 and the Experiment 2 Rep 2 Enrichment is 0.72 log2.

As to “i53 + S57K two-hybrid fusion (designed binder)”, the Experiment 1 Average Enrichment was -0.4 log2, the Experiment 1 Rep 1 Enrichment was -0.22 log2, the Experiment 1 Rep 2 Enrichment is -0.58 log2 and the Experiment 2 Average Enrichment stood at 0.15 log2. For the same substance, the Experiment 2 Rep 1 Enrichment is -0.07 log2 and the Experiment 2 Rep 2 Enrichment came out at 0.36 log2.

Regarding “i53 + E18S two-hybrid fusion (designed binder)”, the Experiment 1 Average Enrichment was found to be 0.48 log2, the Experiment 1 Rep 1 Enrichment stood at 0.47 log2, the Experiment 1 Rep 2 Enrichment worked out at 0.49 log2 and the Experiment 2 Average Enrichment was determined as 0.33 log2. Besides, the Experiment 2 Rep 1 Enrichment is -0.01 log2 and the Experiment 2 Rep 2 Enrichment came to 0.67 log2.

In turn, “i53 + R74C two-hybrid fusion (designed binder)” came in with an Experiment 1 Average Enrichment of 0.81 log2, an Experiment 1 Rep 1 Enrichment of 0.64 log2, an Experiment 1 Rep 2 Enrichment of 0.99 log2 and an Experiment 2 Average Enrichment of 0.65 log2. Besides, the Experiment 2 Rep 1 Enrichment stood at 0.68 log2 and the Experiment 2 Rep 2 Enrichment is 0.63 log2.

Consider “i53 + P38N two-hybrid fusion (designed binder)”, for which the Experiment 1 Average Enrichment was 1.02 log2, the Experiment 1 Rep 1 Enrichment came out at 2.28 log2, the Experiment 1 Rep 2 Enrichment was -0.25 log2 and the Experiment 2 Average Enrichment was -1.49 log2. Moreover, the Experiment 2 Rep 1 Enrichment is -1.91 log2 and the Experiment 2 Rep 2 Enrichment is -1.07 log2.

Substance “i53 + K63V two-hybrid fusion (designed binder)” showed an Experiment 1 Average Enrichment of -0.13 log2, an Experiment 1 Rep 1 Enrichment of -0.15 log2, an Experiment 1 Rep 2 Enrichment of -0.11 log2 and an Experiment 2 Average Enrichment of 0.01 log2. The substance further had an Experiment 2 Rep 1 Enrichment of 0 log2 and an Experiment 2 Rep 2 Enrichment of 0.02 log2.

The substance “i53 + H68M two-hybrid fusion (designed binder)” showed an Experiment 1 Average Enrichment of 2.28 log2, an Experiment 1 Rep 1 Enrichment of 2.53 log2, an Experiment 1 Rep 2 Enrichment of 2.04 log2 and an Experiment 2 Average Enrichment of 1.28 log2. The same substance came in with an Experiment 2 Rep 1 Enrichment of 0.99 log2, an Experiment 2 Rep 2 Enrichment of 1.58 log2, a Percent GFP Positive Rep 1 of 28.6% and a Percent GFP Positive Rep 2 of 23.5%. In addition, the Percent GFP Positive Rep 3 was 28.3%.

For the substance “i53 + K33R two-hybrid fusion (designed binder)”, the Experiment 1 Average Enrichment is 0.42 log2, the Experiment 1 Rep 1 Enrichment was 0.73 log2, the Experiment 1 Rep 2 Enrichment worked out at 0.1 log2 and the Experiment 2 Average Enrichment was determined as 0.37 log2. This substance yielded an Experiment 2 Rep 1 Enrichment of 0.64 log2 and an Experiment 2 Rep 2 Enrichment of 0.1 log2.

The substance “i53 + Q41I two-hybrid fusion (designed binder)” returned an Experiment 1 Average Enrichment of 0.3 log2, an Experiment 1 Rep 1 Enrichment of 0.3 log2, an Experiment 1 Rep 2 Enrichment of 0.3 log2 and an Experiment 2 Average Enrichment of -0.08 log2. Also, the Experiment 2 Rep 1 Enrichment was determined as 0.08 log2 and the Experiment 2 Rep 2 Enrichment is -0.25 log2.

Turning to “i53 + R42Y two-hybrid fusion (designed binder)”, the Experiment 1 Average Enrichment is 1.57 log2, the Experiment 1 Rep 1 Enrichment is 1.44 log2, the Experiment 1 Rep 2 Enrichment was 1.69 log2 and the Experiment 2 Average Enrichment was 1.19 log2. This substance gave an Experiment 2 Rep 1 Enrichment of 1.13 log2 and an Experiment 2 Rep 2 Enrichment of 1.26 log2.

Take “i53 + K48L two-hybrid fusion (designed binder)”: the Experiment 1 Average Enrichment came out at 0.05 log2, the Experiment 1 Rep 1 Enrichment stood at 0.05 log2, the Experiment 1 Rep 2 Enrichment turned out to be 0.04 log2 and the Experiment 2 Average Enrichment was 0.2 log2. The same substance came in with an Experiment 2 Rep 1 Enrichment of 0.28 log2 and an Experiment 2 Rep 2 Enrichment of 0.12 log2.

Consider “i53 + D39Q two-hybrid fusion (designed binder)”, for which the Experiment 1 Average Enrichment is -2.78 log2, the Experiment 1 Rep 1 Enrichment was -3.1 log2, the Experiment 1 Rep 2 Enrichment is -2.46 log2 and the Experiment 2 Average Enrichment was determined as 0.03 log2. The substance also had an Experiment 2 Rep 1 Enrichment of -0.45 log2 and an Experiment 2 Rep 2 Enrichment of 0.51 log2.

In turn, “i53 + K66R two-hybrid fusion (designed binder)” had an Experiment 1 Average Enrichment of -0.69 log2, an Experiment 1 Rep 1 Enrichment of -0.84 log2, an Experiment 1 Rep 2 Enrichment of -0.54 log2 and an Experiment 2 Average Enrichment of 0.55 log2. In addition, the Experiment 2 Rep 1 Enrichment was found to be 0.13 log2 and the Experiment 2 Rep 2 Enrichment is 0.97 log2.

On to “i53 + S49L two-hybrid fusion (designed binder)”, for which the Experiment 1 Average Enrichment is 1 log2, the Experiment 1 Rep 1 Enrichment is 0.85 log2, the Experiment 1 Rep 2 Enrichment worked out at 1.15 log2 and the Experiment 2 Average Enrichment was found to be 0.88 log2. The substance further registered an Experiment 2 Rep 1 Enrichment of 0.97 log2, an Experiment 2 Rep 2 Enrichment of 0.8 log2, a Percent GFP Positive Rep 1 of 18.8% and a Percent GFP Positive Rep 2 of 13.6%. This substance gave a Percent GFP Positive Rep 3 of 17.7%.

Turning to “i53 + I13F two-hybrid fusion (designed binder)”, the Experiment 1 Average Enrichment was 0.53 log2, the Experiment 1 Rep 1 Enrichment amounted to 1.04 log2, the Experiment 1 Rep 2 Enrichment was 0.03 log2 and the Experiment 2 Average Enrichment was -0.09 log2. In addition, the Experiment 2 Rep 1 Enrichment is -0.26 log2 and the Experiment 2 Rep 2 Enrichment amounted to 0.07 log2.

The substance “i53 + K48I two-hybrid fusion (designed binder)” came in with an Experiment 1 Average Enrichment of 0.64 log2, an Experiment 1 Rep 1 Enrichment of 0.5 log2, an Experiment 1 Rep 2 Enrichment of 0.77 log2 and an Experiment 2 Average Enrichment of 0.42 log2. Also, the Experiment 2 Rep 1 Enrichment stood at 0.35 log2 and the Experiment 2 Rep 2 Enrichment turned out to be 0.49 log2.

As to “i53 + L67T two-hybrid fusion (designed binder)”, the Experiment 1 Average Enrichment was found to be 0.09 log2, the Experiment 1 Rep 1 Enrichment is 0.69 log2, the Experiment 1 Rep 2 Enrichment was -0.52 log2 and the Experiment 2 Average Enrichment stood at 0.11 log2. The Experiment 2 Rep 1 Enrichment was -0.3 log2 and the Experiment 2 Rep 2 Enrichment was determined as 0.52 log2.

Consider “i53 + T9I two-hybrid fusion (designed binder)”, for which the Experiment 1 Average Enrichment was 0.46 log2, the Experiment 1 Rep 1 Enrichment came out at 0.3 log2, the Experiment 1 Rep 2 Enrichment is 0.61 log2 and the Experiment 2 Average Enrichment is 0.25 log2. Further, the Experiment 2 Rep 1 Enrichment is -0.01 log2 and the Experiment 2 Rep 2 Enrichment came to 0.52 log2.

As to “i53 + R74L two-hybrid fusion (designed binder)”, the Experiment 1 Average Enrichment was 1.11 log2, the Experiment 1 Rep 1 Enrichment turned out to be 1.35 log2, the Experiment 1 Rep 2 Enrichment was determined as 0.88 log2 and the Experiment 2 Average Enrichment was found to be 0.85 log2. Further, the Experiment 2 Rep 1 Enrichment stood at 0.95 log2 and the Experiment 2 Rep 2 Enrichment came out at 0.76 log2.

“i53 + E51D two-hybrid fusion (designed binder)” yielded an Experiment 1 Average Enrichment of 0.52 log2, an Experiment 1 Rep 1 Enrichment of 0.31 log2, an Experiment 1 Rep 2 Enrichment of 0.72 log2 and an Experiment 2 Average Enrichment of 0.61 log2. Also, the Experiment 2 Rep 1 Enrichment was determined as 0.29 log2 and the Experiment 2 Rep 2 Enrichment was found to be 0.92 log2.

“i53 + S65H two-hybrid fusion (designed binder)” showed an Experiment 1 Average Enrichment of 1.1 log2, an Experiment 1 Rep 1 Enrichment of 0.69 log2, an Experiment 1 Rep 2 Enrichment of 1.5 log2 and an Experiment 2 Average Enrichment of 1.16 log2. This substance yielded an Experiment 2 Rep 1 Enrichment of 1.34 log2 and an Experiment 2 Rep 2 Enrichment of 0.98 log2.

In turn, “i53 + R54C two-hybrid fusion (designed binder)” registered an Experiment 1 Average Enrichment of 0.06 log2, an Experiment 1 Rep 1 Enrichment of 0.24 log2, an Experiment 1 Rep 2 Enrichment of -0.12 log2 and an Experiment 2 Average Enrichment of -0.07 log2. This substance registered an Experiment 2 Rep 1 Enrichment of -0.43 log2 and an Experiment 2 Rep 2 Enrichment of 0.29 log2.

Substance “i53 + Q40D two-hybrid fusion (designed binder)” yielded an Experiment 1 Average Enrichment of -0.31 log2, an Experiment 1 Rep 1 Enrichment of 0.13 log2, an Experiment 1 Rep 2 Enrichment of -0.75 log2 and an Experiment 2 Average Enrichment of 0.8 log2. This substance also displayed an Experiment 2 Rep 1 Enrichment of 1.27 log2 and an Experiment 2 Rep 2 Enrichment of 0.33 log2.
